According to the DeepSol protein solubility set:

Experiment: soluble on expression in E. coli; label from the status in PepcDB or PDB records

Sequence | soluble on expression in E. coli
MSRDIDYGNLMHTAMRGLIKTVLADVAQHGLPGAHHFFITFDTRYEGVQLADWLADRYPGEMTIVMQHWYENLDVGEDGFAITLNFGDSPEPLYIPYDAIRTFVDPSVEFGLRFESPDFDEDDEDDIEVEEEPDAPKPDAEVVSLDSFRKPLEHHHHHH | soluble
MTQPLFLIGPRGCGKTTVGMALADSLNRRFVDTDQWLQSQLNMTVAEIVEREEWAGFRARETAALEAVTAPSTVIATGGGIILTEFNRHFMQNNGIVVYLCAPVSVLVNRLQAAPEEDLRPTLTGKPLSEEVQEVLEERDALYREVAHIIIDATNEPSQVISEIRSALAQTINC | soluble
DCCSCQEKWVGYRCNCYFISSEQKTWNESRHLCASQKSSLLQLQNTDELDFMSSSQQFYWIGLSYSEEHTAWLWENGSALSQYLFPSFETFNTKNCIAYNPNGNALDESCEDKNRYICKQQLI | soluble
MGSDKIHHHHHHMTDRSAVPVDSPAGSTRTVILEKALELFAETGFNGVSMRRIAQEVGINPATLYHHFVHKEDLYEQVLRFAYAEQAAHFSALVSIEGTPQSQLGEFIREFAFYIAKDQHFFRLVKREQLEGNSERLKMLVDLLFGKQYEAMVRSVGRVTQAFDTHMLVTSLLGLVLHHYETRHMRQFFVEYMPSQDDPEVVADHCCRLFFFGIQGAGAAQEVPYRSEQSLLSADGEHSRDGAG | not soluble
MGPVFVVGQIDEMVPHPDSDHLNICQVNIGDKKVQIVAGAPNASPGLKTIVALPGAMMPSGALIFPGKLRGEDSYGMMCSPRELALPNAPQKRGIIELDDSAVVGEALEHHHHHH | not soluble
MRLERTFDPNDLSTQNMESPICLPIGFVHFLAQSQTLQQVLDTVAEWINRIFESDRTSITLYENSDYLKVYSFSGNKAIPADFLVPIDQAFVGRVFKNQQLIICDDVSQSDELDCVMLTSSGMGTCMDAPLMHGQMCLGTLNVAHHQTHFYTKEQAAQLQCIANWIALNI | not soluble
MSVFSLKIDIADNKFFNGETSPLFSQSQAKLARQFHQKIAGYRPTPLCALDDLANLFGVKKILVKDESKRFGLNAFKMLGGAYAIAQLLCEKYHLDIETLSFEHLKNAIGEKMTFATTTDGNHGRGVAWAAQQLGQNAVIYMPKGSAQERVDAILNLGAECIVTDMNYDDTVRLTMQHAQQHGWEVVQDTAWEGYTKIPTWIMQGYATLADEAVEQMREMGVTPTHVLLQAGVGAMAGGVLGYLVDVYSPQNLHSIIVEPDKADCIYRSGVKGDIVNVGGDMATIMAGLACGEPNPLGWEILRNCATQFISCQDSVAALGMRVLGNPYGNDPRIISGESGAVGLGVLAAVHYHPQRQSLMEKLALNKDAVVLVISTEGDTDVKHYREVVWEGKHAVAP | not soluble
IGEFSYSLNGNLSYAHNRILSRTQADNTLPWQSVLGSSVGELWGLKALGLYQSEEEIANSPQVSWNTPRVGDIKYADINGDGKIDSNDRIKISRGIRPEMMFALMADANYKGFDLSVQFQGAALCDKMLQYSWQDLNGATDMTPMTRPWYANWDNAPLYLVENSWRPDHTNAEYPRLTVSSVSHSNNAQQSDFWKRNGAYLRLKNVTLGYTLPKAWTNKMGLSNIRVYANGTNLLTFTDFKYIDPESTNVATGYYPQQRTFSFGIDVRF | not soluble
MGNAKSTDSNPKKSVRRKSATTPSTSSSSRPSISSQGNRKPILSVNQRQIIKGCMDNSKDDLGERIFRRALERRDDFKQFIDNLSKGQRYENSQYLKQFLLGIVENIMDIDEINRISEEFGCNHVQFRANGFKPDFFACTADAVTTECTFLDQAAHPTSETAAAWSLLTSHVFSAVRDGYYAELRRQRKSSNAFRARVSVDVVSTGTDDGTSLSSATRRSNSPQEEIAESFDHHTVENNCVESSGNFLAPPTVY | not soluble
MGSDKIHHHHHHMERLQALEAWAARQLGQETVDIAPASADASFRRYFRVTAKGRDYIVMDAPPAHEDCGPFIAVARLFGDAGVHVPEVLAQDLDQGFLLLTDLGHTTYLSALNESTARELYLAANDALIRIQLASRPGVLPDYDRALLTRELMLFPEWYVAKHLGVELNAAQRATLDTVFERLLTNNLAQPQVYVHRDWHSRNLMVSDPNPGILDFQDAVFGPITYDLASIYRDAYIQWDEERQLDWVIRYWEKARAARLPVAADFGDFWRDFEWMGAQRHLKVLGIFARLYHRDGKDGYLKDMPLVMHYLRSVCGRYDELKPLLLLLDALQDRQPQAGYTF | not soluble
MSKRNTQQRRHNIIADLNAQGEVSVDSLAKQFDTSEVTIRKDLAALETSGLLLRRYGGAVALPSEITEAKVDQLSQQKLHIAKKAAMLIRDHNRIIIDSGQTTSALVSELANKKGLVVMTNALSIANEIHALENEPTLLMTGGTWDATSEAFQGQVAEQVLRSYDFDQLFIGADGIDIKRGTTTFNELIGLSRVMAEVAREVIVMVESAKITKKIPNLELNWQQIHTVITDDGLSEEMRIALTEQGVKLIIAKG | not soluble
MLTRGFTSIGKIASRGLSSTFYQDAFQLSDQLTEDERSLMLSAREYCQERLLPRVTEAYRTEKFDPSLIPEMGSMGLLGAPYQGYGCAGTSTVGYGLIAREVERVDSGYRSTMSVQTSLVIGPIYNYGSEDQKQKYIPDLASGKKIGCFGLTEPNHGSNPGGMETKATWDETTKTYKLNGSKTWISNSPVSDVMVVWARSARHNNKIKGFILERGMKGLTTPKIEGKLSLRASITGQIAMDDVPVPEENLLPNAEGLQGPFGCLNNARLGIAWGALGAAEECFHLARQYTLDRQQFGRPLAQNQLMQLKMADMLTEISLGLQGCLRVSRLKDEGKVQSEQISIIKRNSCGKALEVARKARDMLGGNGIVDEYHIMRHMVNLETVNTYEGTHDVHALILGRAITGLNGFC | not soluble
MSLIYFETERLIARDYLTNDYLPFSQMNADEQVMKYFPARLTQNESNAFLDRIQEELKSLGYGLFAIEVKSTGEFIGFTGFHEATFEATFTPCTEIGWRLKHSAWNQGYATEAALGALALAEEINTINEIYSFTAALNKPSENVMKKIHLTKIATFEHPALVNGDPLKPHVLYKKAEGHHHHHH | soluble
MGSDKIHHHHHHMTSIVFNGSYITKKNTGVGVVSKDLLYSLSANKITTLIPKDLDIKGDIYIPNNLSPGTGLKSHFRRLYWLQNSVPKLMNNLNAEYFLSPLLEAPLFSNIKSIVLAHDLIPIRYPSVSFLTLYYLIYIPLILKQSKLILCNSVSTANDLHRFYKVPMHKLFPIKLGFNNKKYYPIKKIRKKFFLIIGRHNPHKNLRRVIKAFAYSKINDYKLIFVGPFDKRHTPSLLKLIDKHNIRHLCVWKGWIDDDEKLSLLNECHALIIASLWEGFGLPALEAMACGTPVIASDRGALREVMGNYGYFINPFNIQSIACAMNAVINDKKCFENALQEGPSRAESFNWLDTARTIEKIIQEID | not soluble
MGSDKIHHHHHHMNLSHLKMMITVANLGSLQKTAEQLNRTQSAVSMALKKLEENAGFALFNRDGYRLELTEQGQHFLRQAEEVVRQQQRLQSLATQLKHGAEPLLTLCYDHTCDSKLWVPSIQHIQQQYPTTELHVDGESQMRALKRIDNGSADLALCPWLPLFRQYGDFETLPVAPFELTVVISTALMKEFGRMPQSRQDLLELPMLVPQNLEIGINLDAVLRLPSQQRIRVNEVNTQFELLMAGFGWGIIPKHIALDALEQGKLVEISIPGFVQQVRLEIHLVRSANRTLGPAANAIWESFA | not soluble
PLHHLMIGTWTPPGAIFTVQFDDEKLTCKLIKRTEIPQDEPISWMTFDHERKNIYGAAMKKWSSFAVKSPTEIVHEASHPIGGHPRANDADTNTRAIFLLAAKQPPYAVYANPFYKFAGYGNVFSVSETGKLEKNVQNYEYQENTGIHGMVFDPTETYLYSADLTANKLWTHRKLASGEVELVGSVDAPDPGDHPRWVAMHPTGNYLYALMEAGNRICEYVIDPATHMPVYTHHSFPLIPPGIPDRDPETGKGLYRADVCALTFSGKYMFASSRANKFELQGYIAGFKLRDCGSIEKQLFLSPTPTSGGHSNAVSPCPWSDEWMAITDDQEGWLEIYRWKDEFLHRVARVRIPEPGFGMNAIWYD | soluble
MLLNMMCGRQLSAISLCLAVTFAPLFNAQADEPEVIPGDSPVAVSEQGEALPQAQATAIMAGIQPLPEGAAEKARTQIESQLPAGYKPVYLNQLQLLYAARDMQPMWENRDAVKAFQQQLAEVAIAGFQPQFNKWVELLTDPGVNGMARDVVLSDAMMGYLHFIANIPVKGTRWLYSSKPYALATPPLSVINQWQLALDKGQLPTFVAGLAPQHPQYAAMHESLLALLCDTKPWPQLTGKATLRPGQWSNDVPALREILQRTGMLDGGPKITLPGDDTPTDAVVSPSAVTVETAETKPMDKQTTSRSKPAPAVRAAYDNELVEAVKRFQAWQGLGADGAIGPATRDWLNVTPAQRAGVLALNIQRLRLLPTELSTGIMVNIPAYSLVYYQNGNQVLDSRVIVGRPDRKTPMMSSALNNVVVNPPWNVPPTLARKDILPKVRNDPGYLESHGYTVMRGWNSREAIDPWQVDWSTITASNLPFRFQQAPGPRNSLGRYKFNMPSSEAIYLHDTPNHNLFKRDTRALSSGCVRVNKASDLANMLLQDAGWNDKRISDALKQGDTRYVNIRQSIPVNLYYLTAFVGADGRTQYRTDIYNYDLPARSSSQIVSKAEQLIR | soluble
MKISPSRQVKGEIEIIPVSGFRGIGKFIDVPWRLYADDPLWVPPLRLERRLHLSRFNPYFRHAQWQGWIACRDNQPVGRISAQIDELYQQRYGTDTGHFGMLESIQDEAVFSRLIQVAESWLVERGVRQISGPFNFSINQECGLLVQGFDTPPVFMMPYSPEWYTSLLEQNGYQPCKDLLAYWLVTDFDPPPAMQAIDRKYRHQIRIRPLQRNRFNEEIETMRDIFNDAWSDNWGFVPFTQEEFAELGSSLRWLVPDEFIQIAEIDGRPVAFMAVLPNLNEVLPALNGKLLPLGWLHLINKLKSASITTGRVPLMGVRKQFHHTLVGIALAFKVIDAPRKMVKSRGIGHVELSWILEDNQSMRAILEKIGGREYKRYRIYDKTLA | not soluble
QGIETVTKANGYETLLAHFSYDELEEERKIASLLSYQVDGLILTESHHTPRTLQMIKNAGVPVVETMELPPQPIDMAVGLDHEDASYNAVKRMLDAGKRTIVYFGARLDTRTKLRMQGYDRAMNEAGLEPKHVLTGVHSSFSLAHDLLERALKTYPTLDGVFCTNDDIAIGTMLSAQQRGIQVPQQLAVVGYNALDIGQTISPKLTSVDTPRFQIGVKSAELLIARLKGEAQEEKVFDMGYQITSGESV | not soluble
MATMDEKPLYGLERTVFRQLLHLFSRYADVIEKVILFGSRARGDYKEGSDIDLAIKFRKPGGPLYLLQSDLDELPIIYPIDVVDYNQIHNEQLKMNIDQEGKTIFQTNEHGKVMVTMSRLMDRFYDFERALSKLRQSAARDAQTDDLVVDATIQRFEFTYELAWKWMKLYLEHQGYAEVTSPRKTIREAFREGLIQDGETWLRMLEDRNRTSHTYDEETAMDIYERIRIHYIPLFDRLLDEMKQRLDSAT | not soluble
GQGVYTYEDGGVLQGTYVDGELNGPAQEYDTDGRLIFKGQYKDNIRHGVCWIYYPDGGSLVGEVNEDGEMTGEKIAYVYPDERTALYGKFIDGEMIEGKLATLMSTEEGRPHFELMPGNSVYHFDKSTSSCISTNALLPDPYESERVYVAESLISSAGEGLFSKVAVGPNTVMSFYNGVRITHQEVDSRDWALNGNTLSLDEETVIDVPEPYNHVSKYCASLGHKANHSFTPNCIYDMFVHPRFGPIKCIRTLRAVEADEELTVAYGYDHSPPGKSGPEAPEWYQVELKAFQATQQK | soluble
